The text below walks through data of US20090123940A1 (Johns Hopkins, published 2009).

Assay [1] addresses T1, EC1 domain of GluR6 (display construct) (UniProt P42260 32-561, limits assumed).
T1 construct: domain: EC1 domain
T1 sequence (looked up): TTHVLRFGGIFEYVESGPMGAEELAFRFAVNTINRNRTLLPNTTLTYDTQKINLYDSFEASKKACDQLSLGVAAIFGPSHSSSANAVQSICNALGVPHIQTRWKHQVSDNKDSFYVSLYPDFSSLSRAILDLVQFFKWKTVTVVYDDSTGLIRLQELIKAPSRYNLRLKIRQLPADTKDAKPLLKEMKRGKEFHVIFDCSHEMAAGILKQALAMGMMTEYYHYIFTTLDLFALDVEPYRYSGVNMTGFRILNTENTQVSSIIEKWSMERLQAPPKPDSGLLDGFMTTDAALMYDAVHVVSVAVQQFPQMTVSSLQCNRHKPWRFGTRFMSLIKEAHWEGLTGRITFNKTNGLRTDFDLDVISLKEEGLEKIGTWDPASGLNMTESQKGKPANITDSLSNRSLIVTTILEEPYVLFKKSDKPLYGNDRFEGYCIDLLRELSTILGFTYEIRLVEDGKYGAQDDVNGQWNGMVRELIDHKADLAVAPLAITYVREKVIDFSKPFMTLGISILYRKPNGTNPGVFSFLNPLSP
Put plainly: co-clustering on transfected cells.

Assay [2] addresses T2, NMDA receptor subunits NR1 and NR2A (UniProt P35439 19-938; Q00959 23-1464).
T2 construct: whole, on cells; Co-expressed in 293 cells; also called NR1/2A
Put plainly: co-clustering in co-transfected 293 cells, immunostaining.

Assay [3] concerns the target T3, NMDA receptor subunit NR1 (UniProt P35439 19-938).
T3 construct: whole, on cells
Described as above.

In assay [4] the target is T4, neuronal glutamate transporter EAAC1 (UniProt P51907 1-523).
T4 construct: whole, on cells
T4 sequence (looked up): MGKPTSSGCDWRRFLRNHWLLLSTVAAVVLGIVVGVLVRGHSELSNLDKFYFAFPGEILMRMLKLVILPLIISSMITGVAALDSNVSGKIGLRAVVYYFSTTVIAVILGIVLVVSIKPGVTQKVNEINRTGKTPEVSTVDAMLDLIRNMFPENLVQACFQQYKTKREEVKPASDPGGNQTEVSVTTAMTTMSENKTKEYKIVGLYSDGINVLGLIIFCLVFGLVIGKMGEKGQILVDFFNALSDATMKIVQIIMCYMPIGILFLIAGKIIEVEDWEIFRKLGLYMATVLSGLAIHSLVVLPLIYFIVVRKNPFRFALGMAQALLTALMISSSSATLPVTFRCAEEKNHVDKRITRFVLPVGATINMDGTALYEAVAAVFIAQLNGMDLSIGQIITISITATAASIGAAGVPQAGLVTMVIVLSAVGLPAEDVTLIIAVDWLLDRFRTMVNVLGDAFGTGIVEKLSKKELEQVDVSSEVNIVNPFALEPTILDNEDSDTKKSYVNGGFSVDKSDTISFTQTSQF
The assay is described as above.

The target in assay [5] is T5, kainate receptor subunit GluR6 (UniProt P42260 32-908, limits assumed).
T5 construct: whole, on cells
The assay is described as above.

Assay [6] has as its target metabotropic glutamate receptor mGluR5 (UniProt P31424 21-1203, limits assumed). The assay is described as follows: biochemical assays, not described further.
The target in assay [7] is T6, HA-GluR6 (GluR6 with an N-terminal HA tag) (UniProt P42260 32-908).
T6 construct: mature; also called wildtype HA GluR6
Put plainly: co-IP from co-transfected HEK 293T cells.

In assay [8] the target is T7, neuronal pentraxin receptor (NPR), full length, rat (rat, UniProt O35764 1-494).
T7 construct: whole, on cells; Stands for NPR expressed in HEK293T cells and for native NPR of rat brain extracts; also called full-length NPR; wtNPR
T7 sequence (looked up): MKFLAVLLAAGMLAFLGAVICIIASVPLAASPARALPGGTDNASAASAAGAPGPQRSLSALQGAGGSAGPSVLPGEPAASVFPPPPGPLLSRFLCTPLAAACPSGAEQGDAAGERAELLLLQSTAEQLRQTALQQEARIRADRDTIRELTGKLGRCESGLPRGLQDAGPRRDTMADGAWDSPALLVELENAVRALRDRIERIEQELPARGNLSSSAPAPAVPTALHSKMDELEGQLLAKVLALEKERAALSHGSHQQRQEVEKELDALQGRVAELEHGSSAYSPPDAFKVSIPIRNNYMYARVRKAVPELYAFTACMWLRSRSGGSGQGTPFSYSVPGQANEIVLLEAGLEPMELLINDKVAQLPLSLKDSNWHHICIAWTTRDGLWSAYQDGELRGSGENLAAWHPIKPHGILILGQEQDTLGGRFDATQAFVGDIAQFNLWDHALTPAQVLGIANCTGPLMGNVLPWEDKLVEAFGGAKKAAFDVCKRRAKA
The assay is described as follows: co-IP from co-transfected HEK293T cells. From the text: (§1) Narp and NP1 form highly organized homo- and hetero-multimer complexes that are covalently linked by N-terminal disulfide bonds (Xu et al., supra). Moreover, NPR and Narp formed heteromultimer complexes when coexpressed in HEK293T cells. Heteromultimer complex formation is dependent on the first and third cysteines of NPs that flank the first coiled-coil domain (Xu et al., supra). NPR was co-expressed with mutants of Narp, in which two or all three of the cysteines are mutated to serine. In mutant “Narp (C1, 2S),” the cysteines at positions 14 and […] were mutated to serines, and in mutant “Narp (C1, 2, 3S)” the cysteines at positions 14, 26, and 79 were mutated to serines. […] Thus, it appeared that NPR and Narp formed heterocomplexes that are stabilized by disulfide bonds. To examine NP complexes in brain, lysates from a control mouse were prepared and immunoprecipitated with rabbit antibody specific to NP1 or Narp. Lysates from knockout mice NP1 KO, Narp KO and combined NP1/Narp/NPR KO (NP TKO) were also utilized as controls. […] The ˜25 kDa band, presumptive NTF-NPR, also specifically co-IPed with both Narp and NP1. […] The pentraxin domain of Narp and NP1 is required for interaction with AMPAR.
(§2) To determine if NPR would interact with AMPAR, AMPAR subunits from GluR1 or GluR6 were HA tagged (GluR1-HA and GluR6-HA, respectively) were co-transfected with myc-tagged Narp (Narp-myc) or NPR(NPR-myc) into HEK293T cells. Lysates were assayed for co-immunoprecipitation. […] Similarly, GluR1-HA but not GluR6-HA co-IPed with NPR-myc.

The target of assay [9] is T8, GluR6-HA (HA tagged GluR6 of Example 10) (UniProt P42260 32-908, limits assumed).
T8 construct: whole, on cells; not shown: HA tag
Put plainly: co-IP from co-transfected HEK293T cells.
Description: as §1, §2

Assay [10] addresses T9, native NPR of mouse brain (mouse, UniProt Q99J85 1-493).
T9 sequence (looked up): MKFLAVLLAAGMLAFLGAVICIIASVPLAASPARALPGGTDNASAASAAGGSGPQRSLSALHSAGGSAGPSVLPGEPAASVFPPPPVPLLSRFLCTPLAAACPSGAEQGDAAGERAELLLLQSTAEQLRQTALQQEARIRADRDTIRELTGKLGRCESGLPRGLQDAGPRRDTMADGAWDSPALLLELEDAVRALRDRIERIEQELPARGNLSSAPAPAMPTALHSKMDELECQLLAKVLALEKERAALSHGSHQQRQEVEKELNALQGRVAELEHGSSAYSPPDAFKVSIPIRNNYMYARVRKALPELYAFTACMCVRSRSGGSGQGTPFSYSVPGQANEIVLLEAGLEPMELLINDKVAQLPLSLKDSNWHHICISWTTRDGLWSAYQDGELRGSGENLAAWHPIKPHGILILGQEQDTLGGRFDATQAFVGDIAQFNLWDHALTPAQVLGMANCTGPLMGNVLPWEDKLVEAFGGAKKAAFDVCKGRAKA
Put plainly: co-IP from mouse brain lysate with a rabbit antibody to NP1; knockout lysates as controls.
Description: as §1

Assay [11] concerns the target T9, native NPR of mouse brain. Put plainly: co-IP from mouse brain lysate with a rabbit antibody to Narp; knockout lysates as controls.
Description: as §1

Residue numbers refer to the chain shown, from its start.

T8 sequence (P42260 32-908 limits assumed): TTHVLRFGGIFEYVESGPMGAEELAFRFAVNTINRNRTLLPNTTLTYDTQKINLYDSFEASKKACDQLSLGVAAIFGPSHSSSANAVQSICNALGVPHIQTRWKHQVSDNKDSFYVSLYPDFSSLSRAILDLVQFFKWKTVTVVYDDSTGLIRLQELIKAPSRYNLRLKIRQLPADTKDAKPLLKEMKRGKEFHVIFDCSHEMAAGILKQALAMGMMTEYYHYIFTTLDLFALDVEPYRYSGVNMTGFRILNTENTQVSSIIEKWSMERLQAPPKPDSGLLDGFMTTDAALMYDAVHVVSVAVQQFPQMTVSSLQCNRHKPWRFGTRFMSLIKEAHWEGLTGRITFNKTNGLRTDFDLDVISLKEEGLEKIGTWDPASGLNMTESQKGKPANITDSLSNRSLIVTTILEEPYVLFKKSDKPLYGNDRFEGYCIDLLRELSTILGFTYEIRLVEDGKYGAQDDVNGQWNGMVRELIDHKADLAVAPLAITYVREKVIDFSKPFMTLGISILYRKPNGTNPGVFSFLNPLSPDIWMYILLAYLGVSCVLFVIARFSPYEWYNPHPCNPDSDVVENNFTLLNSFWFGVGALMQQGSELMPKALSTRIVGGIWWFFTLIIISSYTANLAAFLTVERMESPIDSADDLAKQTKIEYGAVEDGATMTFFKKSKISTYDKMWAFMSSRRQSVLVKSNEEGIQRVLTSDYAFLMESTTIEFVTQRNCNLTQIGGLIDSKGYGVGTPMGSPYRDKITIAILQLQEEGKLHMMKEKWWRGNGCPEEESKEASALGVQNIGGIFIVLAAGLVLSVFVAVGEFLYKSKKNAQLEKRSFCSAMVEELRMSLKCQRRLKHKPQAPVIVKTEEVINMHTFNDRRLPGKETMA
Sequence of metabotropic glutamate receptor mGluR5 (P31424 21-1203 limits assumed): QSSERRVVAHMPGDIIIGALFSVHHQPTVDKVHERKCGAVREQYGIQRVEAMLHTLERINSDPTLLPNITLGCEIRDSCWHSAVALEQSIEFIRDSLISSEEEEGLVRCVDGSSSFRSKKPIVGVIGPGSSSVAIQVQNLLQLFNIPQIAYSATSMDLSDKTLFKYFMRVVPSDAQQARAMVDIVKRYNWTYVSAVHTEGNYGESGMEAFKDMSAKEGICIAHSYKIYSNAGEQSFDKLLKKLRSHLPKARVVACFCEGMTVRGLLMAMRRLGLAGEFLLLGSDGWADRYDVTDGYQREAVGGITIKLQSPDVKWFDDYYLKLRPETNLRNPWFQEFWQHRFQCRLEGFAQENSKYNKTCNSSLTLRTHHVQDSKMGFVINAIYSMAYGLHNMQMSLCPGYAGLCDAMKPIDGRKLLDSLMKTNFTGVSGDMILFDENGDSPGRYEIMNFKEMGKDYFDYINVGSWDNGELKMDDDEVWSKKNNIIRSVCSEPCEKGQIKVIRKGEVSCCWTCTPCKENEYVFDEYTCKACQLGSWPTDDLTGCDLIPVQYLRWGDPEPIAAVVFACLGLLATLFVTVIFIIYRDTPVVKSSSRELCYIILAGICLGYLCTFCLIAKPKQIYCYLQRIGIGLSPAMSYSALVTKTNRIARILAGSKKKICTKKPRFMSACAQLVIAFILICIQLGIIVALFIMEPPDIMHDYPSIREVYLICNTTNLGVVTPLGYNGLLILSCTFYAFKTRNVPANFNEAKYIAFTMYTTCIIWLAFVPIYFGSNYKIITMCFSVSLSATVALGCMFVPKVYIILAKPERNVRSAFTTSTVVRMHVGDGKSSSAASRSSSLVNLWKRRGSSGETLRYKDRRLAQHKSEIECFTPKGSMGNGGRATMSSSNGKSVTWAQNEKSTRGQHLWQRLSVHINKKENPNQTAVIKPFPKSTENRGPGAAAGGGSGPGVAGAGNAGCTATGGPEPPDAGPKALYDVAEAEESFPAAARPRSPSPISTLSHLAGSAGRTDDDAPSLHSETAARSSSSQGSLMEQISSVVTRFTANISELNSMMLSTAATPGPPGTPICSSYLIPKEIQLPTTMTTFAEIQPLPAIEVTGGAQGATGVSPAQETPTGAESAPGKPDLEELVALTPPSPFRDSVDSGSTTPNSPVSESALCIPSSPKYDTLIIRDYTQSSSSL

B1: Neuronal activity regulated pentraxin (Narp) (ligand)
chain: QAQDNPIPGSRFVCTALPPEAARAGCPLPAMPMQGGALSPEEELRAAVLHWRETVVQQKETLGAQREAIRELTSKLARCEGLAGGKARGTGATGKDTMGDLPRDPGHVVEQLSRSLQTLKDRLESLELQLHTNASNAGLPSDFREVLQRRLGELERQLLRKVAELEDEKSLLHNETSAHRQKTENTLNALLQRVTELERGNSAFKSPDAFKVSLPLRTNYLYGKIKKTLPELYAFTICLWLRSSASPGIGTPFSYAVPGQANEIVLIEWGNNPIELLINDKVAQLPLFVSDGKWHHICITWTTRDGMWEAFQDGEKLGTGENLAPWHPIKPGGVLILGQEQDTVGGRFDATQAFVGELSQFNIWDRVLRAQEIINIANCSTNMPGNIIPWVDNNVDVFGGASKWPVETCEERLLDL
notes: Secreted, glycosylated, disulfide-linked multimer (>220 kDa on non-reducing gels); The signal peptide is called putative; also called neuronal pentraxin 2; untagged Narp
With B1, the binding result in [1], in assay [2], in assay [3], in assay [4], in assay [5] and in [6] was “no binding” each time. For the same molecule, the binding result in assay [7] was “no binding”.

B2: Narp (C1, 3S)-myc, Narp mutant in which cysteines 14 and 79 are mutated to serines (ligand)
chain: B1 chain with C14S, C79S
notes: also called Narp (C1, 2S); mutant Narp; not shown: C-terminal myc tag
In the case of B2, in assay [8], the binding result is listed as “no binding”.

B3: Narp (C1, 2, 3S)-myc, Narp mutant in which cysteines 14, 26, and 79 are mutated to serines (ligand)
chain: B1 chain with C14S, C26S, C79S
notes: also called mutant Narp; not shown: C-terminal myc tag
Turning to B3, the binding result in assay [8] is reported as “no binding”.

B4: C-terminal myc-tagged version of Narp (myc-Narp) (ligand)
chain: B1 chain
notes: also called myc-tagged Narp; myc-tagged full length Narp; not shown: C-terminal myc tag
Regarding B4, the binding result in assay [9] was “no binding”.

B5: native neuronal pentraxin 1 (NP1) of mouse brain (ligand, UniProt Q62443 23-432, looked up)
chain: QDFGPTRFICTSVPVDADMCAASVAAGGAEELRSNVLQLRETVLQQKETILSQKETIRELTTKLGRCESQSTLDSGPGEARSGGGRKQPGSGKNTMGDLSRTPAAETLSQLGQTLQSLKTRLENLEQYSRLNSSSQTNSLKDLLQSKIDDLERQVLSRVNTLEEGKGGPKNDTEERAKIESALTSLHQRISELEKGQKDNRPGDKFQLTFPLRTNYMYAKVKKSLPEMYAFTVCMWLKSSAAPGVGTPFSYAVPGQANELVLIEWGNNPMEILINDKVAKLPFVINDGKWHHICVTWTTRDGVWEAYQDGTQGGNGENLAPYHPIKPQGVLVLGQEQDTLGGGFDATQAFVGELAHFNIWDRKLTPGEVYNLATCSSKALSGNVIAWAESQIEIFGGATKWTFEACRQIN
Regarding B5, the binding result in [10] is reported as “binds”.

B6: native Narp of mouse brain (ligand, UniProt O70340 15-429, looked up)
chain: AGRAQDSPIPGSRFVCTALPPEAARAGCPLPAMPMQGGALSPEEELRAAVLQLRETVVQQKETLGAQREAIRELTGKLARCEGLAGGKARGTGKDTMGDLPRDPGHVVEQLSRSLQTLKDRLESLELQLRTNVSNAGLPSDFREVLQRRLGELERQLLRKVAELEDEKSLLHNETSAHRQKTESTLNALLQRVTELERGNSAFKSPDAFKVSLPLRTNYLYGKIKKTLPELYAFTICLWLRSSASPGIGTPFSYAVPGQANEIVLIEWGNNPIELLINDKVAQLPLFVSDGKWHHICITWTTRDGMWEAFQDGEKLGTGENLAPWHPIKPGGVLILGQEQDTVGGRFDATQAFVGELSQFNIWDRVLRAQEIINIANCSTNMPGNIIPWVDNNVDVFGGASKWPVETCEERLLDL
On to B6, for which, in [11], the binding result is on record as “binds”.
